Eight molecules from US20120316071A1 (published 2012) can be followed below.

The chains are these.
B1: Fab VH3-23_IGHD2-21*01>3_IGHJ6*01 H100E/S108P/Y113G/Y111W & V2-13_IGLJ2*01 (Fab, V domains shown)
VH: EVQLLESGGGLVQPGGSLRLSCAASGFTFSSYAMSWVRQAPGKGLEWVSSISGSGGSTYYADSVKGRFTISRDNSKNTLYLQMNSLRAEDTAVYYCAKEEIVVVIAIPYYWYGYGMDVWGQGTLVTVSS
VL: SSELTQDPAVSVALGQTVRITCQGDSLRSYYASWYQQKPGQAPVLVIYGKNNRPSGIPDRFSGSSSGNTASLTITGAQAEDEADYYCNSRDSSGNHLVVFGGGTKLTVL
notes: Fab made in E. coli: VH joined to CH1 (with His and Flag tags, plasmid A) and VL to lambda CL (plasmid E); also called EPG Y111W
B2: Fab VH3-23_IGHD2-21*01>3_IGHJ6*01 H100E/S108P/Y113G Y114I & V2-13_IGLJ2*01 (Fab, V domains shown)
VH: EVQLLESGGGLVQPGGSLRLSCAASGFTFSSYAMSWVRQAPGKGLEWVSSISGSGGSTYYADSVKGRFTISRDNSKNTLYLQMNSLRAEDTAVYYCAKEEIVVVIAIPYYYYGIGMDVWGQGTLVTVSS
VL: B1 VL
notes: Tested as Fab made in E. coli (VH-CH1 with His and Flag tags; lambda CL); also called EPG Y114I
B3: Fab VH3-23_IGHD2-21*01>3_IGHJ6*01 H100E/S108P/Y113G Y114W & V2-13_IGLJ2*01 (Fab, V domains shown)
VH: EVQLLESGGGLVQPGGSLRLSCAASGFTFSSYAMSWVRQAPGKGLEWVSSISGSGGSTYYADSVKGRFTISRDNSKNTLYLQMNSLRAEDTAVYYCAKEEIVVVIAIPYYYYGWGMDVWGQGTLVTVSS
VL: B1 VL
notes: Tested as Fab made in E. coli (VH-CH1 with His and Flag tags; lambda CL); also called EPG Y114W
B4: Fab VH3-23_IGHD2-21*01>3_IGHJ6*01 H100E/S108P/Y113G Y114N & V2-13_IGLJ2*01 (Fab, V domains shown)
VH: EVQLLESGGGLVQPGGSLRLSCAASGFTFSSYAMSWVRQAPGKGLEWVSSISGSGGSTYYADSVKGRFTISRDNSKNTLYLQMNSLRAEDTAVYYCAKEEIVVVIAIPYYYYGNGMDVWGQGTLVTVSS
VL: B1 VL
notes: Tested as Fab made in E. coli (VH-CH1 with His and Flag tags; lambda CL); also called EPG Y114N
B5: Fab VH3-23_IGHD2-21*01>3_IGHJ6*01 H100E/S108P/Y113G Y112R & V2-13_IGLJ2*01 (Fab, V domains shown)
VH: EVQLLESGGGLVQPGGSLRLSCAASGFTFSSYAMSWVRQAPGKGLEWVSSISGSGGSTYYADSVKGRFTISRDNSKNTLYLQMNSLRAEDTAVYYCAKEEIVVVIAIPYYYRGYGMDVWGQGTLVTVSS
VL: B1 VL
notes: Tested as Fab made in E. coli (VH-CH1 with His and Flag tags from plasmid A; lambda CL from plasmid E); also called EPG Y112R
B6: Fab VH3-23_IGHD2-21*01>3_IGHJ6*01 H100E/S108P/Y113G Y112G & V2-13_IGLJ2*01 (Fab, V domains shown)
VH: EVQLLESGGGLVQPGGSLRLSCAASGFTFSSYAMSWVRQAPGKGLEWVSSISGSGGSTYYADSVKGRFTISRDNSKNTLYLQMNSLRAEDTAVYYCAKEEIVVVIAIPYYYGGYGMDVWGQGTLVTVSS
VL: B1 VL
notes: Tested as Fab made in E. coli (VH-CH1 with His and Flag tags; lambda CL); also called EPG Y112G
B7: Fab VH3-23_IGHD2-21*01>3_IGHJ6*01 H100E/S108P/Y113G Y114S & V2-13_IGLJ2*01 (Fab, V domains shown)
VH: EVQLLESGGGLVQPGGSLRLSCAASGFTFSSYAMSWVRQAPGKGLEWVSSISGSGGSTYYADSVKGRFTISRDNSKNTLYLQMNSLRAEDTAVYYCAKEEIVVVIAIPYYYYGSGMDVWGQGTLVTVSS
VL: B1 VL
notes: Tested as Fab made in E. coli (VH-CH1 with His and Flag tags; lambda CL); also called EPG Y114S
B8: Fab VH3-23_IGHD2-21*01>3_IGHJ6*01 H100E/S108P/Y113G Y114E & V2-13_IGLJ2*01 (Fab, V domains shown)
VH: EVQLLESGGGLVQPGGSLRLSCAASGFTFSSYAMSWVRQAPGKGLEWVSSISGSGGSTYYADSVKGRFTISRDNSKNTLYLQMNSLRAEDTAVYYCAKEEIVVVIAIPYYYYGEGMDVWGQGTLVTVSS
VL: B1 VL
notes: Tested as Fab made in E. coli (VH-CH1 with His and Flag tags; lambda CL); also called EPG Y114E

In the first assay the target is T1, rHuman P-Cadherin/Fc Chimera, CF (R&D Systems Cat#861-PC) (human, UniProt P22223 108-654).
T1 construct: Bought recombinant protein; Fc part of the bought chimera not given
Kind of assay: ECL (MSD) multispot binding assay, antigen spotted on plate, 20 nM Fab.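 Note: purified Fab incubated 1 h at 20 °C on antigen-spotted plate, bound Fab revealed with TAG detection antibody, ECL read, antigen signal divided by same-well blank, ratio ≥4 counted as hit.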
For the molecule B1, the “ECL signal/blank ratio” value was determined as 49.2.

The target of a further assay is T2, rHuman EGF R/Fc Chimera, CF (R&D Systems Cat#344-ER) (human, UniProt P00533 25-645).
T2 construct: Bought recombinant protein; also called epidermal growth factor receptor; Fc part of the bought chimera not given
Described as above.
For B1, the “ECL signal/blank ratio” value was found to be 16.3.

In another assay the target is T3, rHuman IGF-1 sR, CF (R&D Systems Cat#391-GR) (human, UniProt P08069 31-932).
T3 construct: Bought soluble receptor; also called insulin-like growth factor-1 soluble receptor
The assay is described as above.
Consider B2, for which the “ECL multispot value” is 1.4.

Take B3: the “ECL multispot value” is 1.1.

In the case of B4, the “ECL multispot value” stood at 1.2.

Consider B5, for which the “ECL multispot value” turned out to be 1.5.

For the molecule B6, the “ECL multispot value” came to 1.

Consider B7, for which the “ECL multispot value” was found to be 1.3.

For B8, the “ECL multispot value” was 1.5.

The target of a further assay is T4, rHuman CD44/Fc Chimera, CF (R&D Systems Cat#3660-CD) (human, UniProt P16070 21-220).
T4 construct: Bought reagent; Fc part of the bought chimera not given
The assay is described as above.
Regarding B2, the “ECL multispot value” turned out to be 1.8.

B3: the “ECL multispot value” amounted to 1.6.

With B4, the “ECL multispot value” came out at 1.2.

In the case of B5, the “ECL multispot value” was 1.6.

Take B6: the “ECL multispot value” came to 1.2.

For B7, the “ECL multispot value” came out at 1.4.

Take B8: the “ECL multispot value” was 1.5.

The next assay addresses T5, rHuman Erythropoietin R/Fc Chimera, CF (R&D Systems Cat#963-ER) (human, UniProt P19235 25-250).
T5 construct: Bought reagent; also called EPO R; EPO R/Fc; Fc part of the bought chimera not given
T5 sequence (looked up): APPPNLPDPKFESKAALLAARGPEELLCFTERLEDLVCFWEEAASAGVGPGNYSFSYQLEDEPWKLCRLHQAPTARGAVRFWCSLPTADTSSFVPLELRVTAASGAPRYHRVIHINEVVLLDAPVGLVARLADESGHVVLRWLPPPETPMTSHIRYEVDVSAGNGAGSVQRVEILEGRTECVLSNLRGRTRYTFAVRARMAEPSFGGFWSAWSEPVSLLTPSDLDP
Described as above.
B2: the “ECL multispot value” came out at 162.

For B4, the “ECL multispot value” turned out to be 35.

Regarding B5, the “ECL multispot value” was 85.1.

With B6, the “ECL multispot value” stood at 7.9.

For B7, the “ECL multispot value” amounted to 68.5.

Consider B8, for which the “ECL multispot value” worked out at 69.2.

A further assay has as its target T6, rHuman ErbB2/Fc Chimera, CF (R&D Systems Cat#1129-ER) (human, UniProt P04626 23-652).
T6 construct: Bought reagent; also called human epidermal growth factor 2 receptor; Fc part of the bought chimera not given
The description is as above.
Take B2: the “ECL multispot value” was found to be 11.4.

Regarding B3, the “ECL multispot value” stood at 9.3.

B5: the “ECL multispot value” amounted to 5.9.

Regarding B6, the “ECL multispot value” is 1.4.

Take B7: the “ECL multispot value” is 8.7.

With B8, the “ECL multispot value” was 7.4.

For another assay, the target named is T7, rHuman ErbB2/Fc Chimera, CF (R&D Systems Cat#1129-ER) (human, UniProt P04626 23-652).
T7 construct: Bought recombinant protein; also called human epidermal growth factor 2 receptor; Fc part of the bought chimera not given
Described as above.
B1: the “ECL signal/blank ratio” value amounted to 26.5.

The next assay addresses T8, rHuman Notch-1/Fc Chimera, CF (R&D Systems Cat#3647-TK) (human, UniProt P46531 19-526).
T8 construct: Bought reagent; Fc part of the bought chimera not given
The description is as above.
B2: the “ECL multispot value” worked out at 2.6.

As to B3, the “ECL multispot value” worked out at 2.2.

Take B4: the “ECL multispot value” turned out to be 2.

Take B5: the “ECL multispot value” was 2.7.

Regarding B6, the “ECL multispot value” worked out at 2.1.

Regarding B7, the “ECL multispot value” turned out to be 2.9.

The target of a further assay is T9, rHuman EGF R/Fc Chimera, CF (R&D Systems Cat#344-ER) (human, UniProt P00533 25-645).
T9 construct: Bought reagent; also called epidermal growth factor receptor; Fc part of the bought chimera not given
The description is as above.
On to B2, for which the “ECL multispot value” turned out to be 7.1.

Turning to B3, the “ECL multispot value” is 6.6.

As for B4, the “ECL multispot value” is 2.6.

Consider B6, for which the “ECL multispot value” came out at 1.7.

As for B7, the “ECL multispot value” came out at 5.

For B8, the “ECL multispot value” stood at 6.8.

For another assay, the target named is T10, rHuman IGF-1 sR, (IGF-1 sR), CF (R&D Systems Cat#391-GR) (human, UniProt P08069 31-932).
T10 construct: Bought recombinant soluble receptor; also called insulin-like growth factor-1 soluble receptor
The description is as above.
As to B1, the “ECL signal/blank ratio” value amounted to 1.4.

For a further assay, the target named is T11, Recombinant Human DLL4 (R&D Systems Cat#1506-D4/CF) (human, UniProt Q9NR61 27-524).
T11 construct: Bought recombinant protein; also called delta-like protein 4; rHuman DLL4
The description is as above.
For the molecule B2, the “ECL multispot value” came to 2.4.

As to B3, the “ECL multispot value” came out at 1.9.

Regarding B4, the “ECL multispot value” worked out at 1.6.

B5: the “ECL multispot value” was 2.6.

Turning to B6, the “ECL multispot value” was determined as 1.3.

For B7, the “ECL multispot value” came out at 2.2.

For the molecule B8, the “ECL multispot value” worked out at 2.2.

Another assay has as its target T12, rHuman P-Cadherin/Fc Chimera, CF (R&D Systems Cat#861-PC) (human, UniProt P22223 108-654).
T12 construct: Bought reagent; Fc part of the bought chimera not given
The description is as above.
In the case of B2, the “ECL multispot value” was determined as 22.6.

In the case of B3, the “ECL multispot value” was 16.7.

Turning to B4, the “ECL multispot value” stood at 5.9.

Take B5: the “ECL multispot value” was found to be 30.

Take B6: the “ECL multispot value” came to 2.3.

Take B7: the “ECL multispot value” stood at 15.8.

As to B8, the “ECL multispot value” was 13.9.

In the next assay the target is T13, Recombinant Human DLL4 (R&D Systems Cat#1506-D4/CF) (human, UniProt Q9NR61 27-524).
T13 construct: Bought recombinant protein; also called delta-like protein 4; rHuman DLL4
The assay is described as above.
As to B1, the “ECL signal/blank ratio” value came to 2.8.
